Variants at the floor of the assay were thinned out.
B1: TPR 5TU (parent)
chain: GGAUCUUCUCGAUCUAACAAAAAAGACAAAUCUGCCACAAAGCUUGAGAGCAUCUUCGGAUGCAGAGGCGGCAGCCUUCGGUGGCGCGAUAGCGCCAACGUUCUCAACUAUGACACGCAAAACGCGUGCUCCGUUGAAUGGAGUUUAUCAUG

Variants of: B1
Experiment: polymerase ribozyme fitness, log enrichment relative to wild type (log ratio); higher = more active; in vitro selection for triplet polymerase activity
Outline: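 Only genotypes with ≥10 input reads and ≥1 read per output were kept after Illumina sequencing of input and output libraries. These libraries were PCR-built, transcribed mutants of each subunit of a heterodimeric triplet polymerase ribozyme, each put through one triplicate in vitro selection round with frozen incubation at −7 °C, gel excision of extended constructs, streptavidin-bead capture and RT-PCR. Fitness is a logarithmic ratio of genotype enrichment to wild-type enrichment, from inverse-variance-weighted replicate averages, with the logarithm in base 2.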

| Variant | polymerase ribozyme fitness (log ratio) |
| --- | --- |
| A19C G62A C85A A137U U151A | ≤ -4.2 |
| C18U G48U C85A U144C | -2.83 |
| A19C C51G U55G C93U G126C | -2.57 |
| A19C C57A | 0.797 |
| C18G C57U G59A G80A G86U | -2.45 |
| C18G A20C A22U U55G G62A | -3.57 |
| C18G A24U G50U U53A A73G G92A | ≤ -4.2 |
| A19C A23G A30C A91G A138U U139G | -4.05 |
| C18U U144C C149U | -4.09 |
| A19G A26G | -3.57 |
| A19C A52G | -0.125 |
| A19C C27G A28C G58C G59C A64C C85U | ≤ -4.2 |
| C18U C32U G83U | -3.14 |
| A19C U55G C93U G136U | -3.02 |
| C18G G42C C87U A138C U145A | ≤ -4.2 |
| A19C C63U A120G U145A | 0.504 |
| C18G A29U U44G U55G C57A C93U U104G | ≤ -4.2 |
| C18G A19U G25U A89U G94A C131U | -3.92 |
| C18G A21U C35U C95U | -1.12 |
| C18U C51A U53A C57U G59C C95A | -4.09 |
| A19G A23G A110U | ≤ -4.2 |
| C18U G92U A97G U146A | -2.16 |
| A19C A26C C38A C43G G74U G80C | ≤ -4.2 |
| C18G U53A U61A A137C | ≤ -4.2 |

| Variant | polymerase ribozyme fitness (log ratio) |
| --- | --- |
| A19G A49G A52C U55A | -4.18 |
| C18U G42C | ≤ -4.2 |
| A19C G83U | 0.141 |
| C18A C93U A113U A119C G140U | -4.1 |
| A19C C35U A52C U53A C79A A97U A98G C118A U139G A147G | ≤ -4.2 |
| C18U A19G G50A C54U G67C C69A G92C C114A A120U U134G | ≤ -4.2 |
| A19C A22U C38G G58C C85U U102A | -1.87 |
| C18G C27U A64C C93U | ≤ -4.2 |
| C18G A22G A26U U31G U53A G68U C95U A115G | ≤ -4.2 |
| C18U A30U C99G A106U | ≤ -4.2 |
| C18G A40U A47U U101G | -0.397 |
| C18A C38A A47C C93A A98U | -3.69 |
| A19C A49C A60G U101G G141A | -2.8 |
| A19C C38G G70A G80C A98G C118U A150U | -3.77 |
| C18A A73U G86A A110G | ≤ -4.2 |
| C18G C51U C85A A107U C118U A137U | ≤ -4.2 |
| A19C U56A G65A C87U A97U | -1.81 |
| A19G | -0.472 |
| A19C | 0.425 |
| A19G A26U G84A A147G | -3.45 |
| C18G A19C U33G C36U G46A C87U A110G | ≤ -4.2 |
| C18U C32G C51U C87G | ≤ -4.2 |
| C18U A41G G46A U56G C85A U135G U144C | ≤ -4.2 |
| C18G A21U | -0.776 |

| Variant | polymerase ribozyme fitness (log ratio) |
| --- | --- |
| C18U G58C A73G C132A | -3.75 |
| C18U U78A G81U C87G U144A | ≤ -4.2 |
| A19G A20G C43U A47C U55G C87U C105U U145G | ≤ -4.2 |
| C18U C95U | -0.678 |
| C18G C57A A147U | 0.567 |
| A19C A28C A52G U56A G83A A142C | ≤ -4.2 |
| C18U G74C C96A | ≤ -4.2 |
| C18U A91G A120G C132U G141C | ≤ -4.2 |
| A19C G80A C96U C99U G124A | 0.098 |
| C18U A21G C99G A147U | -0.0193 |
| C18G C72G G84C | ≤ -4.2 |
| C18A A20U G25C G83A C87U U145A C149A | ≤ -4.2 |
| A19C G65U A73U G88A C114A U148C | ≤ -4.2 |
| C18U A52C G86A C99U U146G | -4.02 |
| C18A U31C A40C G62C A91C A119G | ≤ -4.2 |
| A19C U31A G92U | 0.391 |
| C18G G141C | -1.51 |
| C18G C32G U55A G83U G88U A113C A138C | ≤ -4.2 |
| A19C U55G U90G | ≤ -4.2 |
| C18U A113G C123A | -3.22 |
| C18G A21G A23C A40U G70A C79G C87G G117C | ≤ -4.2 |
| C18U | -0.399 |
| C18G | -0.169 |
| A19C G58C G88U A98G C103G | ≤ -4.2 |

| Variant | polymerase ribozyme fitness (log ratio) |
| --- | --- |
| C18G A41U A91G U148G | ≤ -4.2 |
| A19G A26U U45A A52U U61A G70C C85G A115U G141U | ≤ -4.2 |
| A19C A52C C85U C96U C108G G140C | ≤ -4.2 |
| C18U C35A A39U G50U U55G C108U | ≤ -4.2 |
| C18U C85A | -0.837 |
| C18G A22G C27U A41U A49C C57A C93G G140C | -4.12 |
| C18U C51A A52G A122C | -1.98 |
| C18G U55A C85G | -2.84 |
| A19C U56A C85G U148A | -3.88 |
| C18U A40U C85U C96U C116U | 0.0691 |
| C18G G92A | -3.23 |
| A19C A22U C57G C87U G94U C103G U104G C129A | ≤ -4.2 |
| C18U A60U G92U C93U C95U C125U | -4.09 |
| A19C A20G U55A G58U C85A G140C | ≤ -4.2 |
| C18G C32U A37G A60G C75U C96U | ≤ -4.2 |
| A19C C35A | -3.08 |
| C18U A26U U31A U53A G94U | ≤ -4.2 |
| A19C A106C | 0.458 |
| C18G G83U C95U | -2.08 |
| C18U G34C U44A C75G C96A C99G A119C | ≤ -4.2 |
| A19C A66G | -3.95 |
| A19C G128C | -3 |
| C18A G83A A107C A110C | ≤ -4.2 |
| C18G G46U A73U C85U G92U C125A | ≤ -4.2 |

| Variant | polymerase ribozyme fitness (log ratio) |
| --- | --- |
| C18G C96U A119U | -0.786 |
| C18G U61C C85G C95U | ≤ -4.2 |
| C18G G58C G81A | -0.953 |
| A19C G50C A52G | -2.64 |
| C18U C32U A41G G48A G68C C87U G94U A107G C149A A150G | ≤ -4.2 |
| C18U C87U | -1.47 |
| A19G A20U U55A C87A C131U U148A | ≤ -4.2 |
| C18U U31C A89C C93A G140U | ≤ -4.2 |
| C18U A26C C38U U78G A98U U145G U151A | ≤ -4.2 |
| C18U A89C A91G A122U C125A U134C | ≤ -4.2 |
| C18G C35U U55A G62U G68U C75U C96U | ≤ -4.2 |
| A19G A40C G48U U61A G74C C87A G126U | ≤ -4.2 |
| C18G C32U G46C U53A C85U | ≤ -4.2 |
| A19C U82G U109G C116A | -0.158 |
| C18G A21G G48U U82A G100A G136A | ≤ -4.2 |
| A19G A29U A49G C118U | ≤ -4.2 |
| C18U A19G A21C C35U U55A G92C A147U | -2.94 |
| C18U C36U C75A C79U C118A C131U | ≤ -4.2 |
| A19C U33A U55A U77G C123G | ≤ -4.2 |
| C18U G42A C85U C103U | -4.11 |
| C18G C54U U61G C87U C95U | -3.85 |
| A19C G59A C76G C87U | ≤ -4.2 |
| C18G C76A C85U | -0.589 |
| A19C C32U A37G A52G C87G A89U U90A C125G U139G | ≤ -4.2 |

| Variant | polymerase ribozyme fitness (log ratio) |
| --- | --- |
| C18G C38U C72U | -0.0428 |
| A19C C54G G94U U111A A115C C125U | ≤ -4.2 |
| C18A C36A G58A A64U C85A | ≤ -4.2 |
| A19C G50A | -1.01 |
| C18U G58A | -0.517 |
| C18U G140U | -3.29 |
| A19C A20U C54A | -1.03 |
| C18U A22G A30G G34U G42U U77A C96A | ≤ -4.2 |
| C18G G50A A91G G94C C132G | ≤ -4.2 |
| C18G U61G U77G U82C C103G | ≤ -4.2 |
| A19G A49G U56A A66G G67C C108U G136A C149A G152U | ≤ -4.2 |
| C18A G50A G68A C96G C99U G136A | ≤ -4.2 |
| A19C A91U | -3.83 |
| C18G U82C C85A A142C | -2.92 |
| C18A U56A C93A A137G | -4.08 |
| C18U G46U G94A C131U | -1.88 |
| C18U U45C A120C | -0.849 |
| C18A A73G G83C C118U A150G | ≤ -4.2 |
| C18U A52C U145G | -2.09 |
| C18U C38G A52G U101G | -1.69 |
| A19C C96U G124C | -0.582 |
| A19C G59A G84U A98G A115U | -3.52 |
| C18G C57U G59A G80A G86U C108G C116U U145A C149G G152U | ≤ -4.2 |
| C18U A49U | -1.09 |

| Variant | polymerase ribozyme fitness (log ratio) |
| --- | --- |
| C18G A26C A107G | ≤ -4.2 |
| C18U A29U A91U A107U | ≤ -4.2 |
| A19G A26U C36G A73U C87A G88C A97G | ≤ -4.2 |
| C18U C57A C95U C96A | -1.46 |
| C18U U55A A73G G86A G94C | ≤ -4.2 |
| C18G G88A G100C C103G | ≤ -4.2 |
| A19C U61G C93A | -4.05 |
| A19G A39C G92A C116A | ≤ -4.2 |
| C18G C27G U53G A120C | ≤ -4.2 |
| C18U C54U C57A G83U | -1.15 |
| C18G A20C U56G G94A | -1.51 |
| C18U C36A C38A U55A G84U | ≤ -4.2 |
| A19C C95A C96U C125G C149U | ≤ -4.2 |
| C18U C87U C99G | -2.1 |
| C18A G86A C96U A115C | -2.7 |
| C18U A19C A30C A47U U56A G67C G70A C85G C87A C96U A142C | ≤ -4.2 |
| C18U A60G G62A G86A C149U | -3.44 |
| C18U A22C A40U A89C | -0.248 |
| C18G G84A | -1.41 |
| C18G A21U C93U G141U | 0.314 |
| C18G C123G | -0.253 |
| A19C G67C | ≤ -4.2 |
| C18G U44A G83A C85A A98U U102G | ≤ -4.2 |

Reference: the RNAGym collection of RNA variant scans (doi:10.1073/pnas.2313332121)
